Experimental data taken from article PMC8321558.

T1: RelA^N-terminal (purified RelA catalytic domains) (Escherichia coli)
T1 sequence (P0AG20 whole entry, looked up): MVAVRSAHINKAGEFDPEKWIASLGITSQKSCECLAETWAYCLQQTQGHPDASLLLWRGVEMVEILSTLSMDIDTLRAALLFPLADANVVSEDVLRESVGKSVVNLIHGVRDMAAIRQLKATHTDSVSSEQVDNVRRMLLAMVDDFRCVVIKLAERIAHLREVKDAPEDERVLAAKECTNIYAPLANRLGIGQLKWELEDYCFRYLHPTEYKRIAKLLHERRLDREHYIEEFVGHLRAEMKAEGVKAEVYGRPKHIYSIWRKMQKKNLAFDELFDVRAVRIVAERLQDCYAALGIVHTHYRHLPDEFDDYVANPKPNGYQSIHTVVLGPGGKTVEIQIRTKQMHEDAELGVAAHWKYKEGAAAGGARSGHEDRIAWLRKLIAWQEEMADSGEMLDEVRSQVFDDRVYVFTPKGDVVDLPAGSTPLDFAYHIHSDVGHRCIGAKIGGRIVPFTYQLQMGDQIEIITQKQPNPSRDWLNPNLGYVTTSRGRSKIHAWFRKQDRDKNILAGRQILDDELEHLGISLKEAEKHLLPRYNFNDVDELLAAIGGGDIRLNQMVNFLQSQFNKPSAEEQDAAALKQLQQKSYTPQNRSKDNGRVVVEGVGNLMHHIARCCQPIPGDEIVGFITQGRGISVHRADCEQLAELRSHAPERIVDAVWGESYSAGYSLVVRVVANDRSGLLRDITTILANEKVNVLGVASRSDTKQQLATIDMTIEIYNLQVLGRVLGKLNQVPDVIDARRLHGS


How the values were obtained:
[1] = molecular target: NirD (purified, untagged) (Escherichia coli) (UniProt P0A9I8); experiment: BLI; biotinylated NirD or NirD^E50K on streptavidin biosensors, RelA^N-terminal as analyte (up to 30 µM); BLItz, 25°C; 50 mM Tris-HCl pH 8.0, 500 mM NaCl, 500 mM KCl, 2 mM β-mercaptoethanol, 2% glycerol; KD from steady-state responses, one site model
[2] = molecular target: T1, RelA^N-terminal (purified RelA catalytic domains) (Escherichia coli)
[3] = molecular target: T1, RelA^N-terminal (purified RelA catalytic domains) (Escherichia coli); experiment: ITC; RelA^N-terminal (30 µM) in the cell, NirD or NirD^E50K (300 µM) in the syringe; 25°C; 50 mM Tris-HCl pH 8.0, 500 mM NaCl, 500 mM KCl, 2 mM β-mercaptoethanol, 2% glycerol; One Set of Sites model

Kd [1] [nM]	in vitro pppGpp synthesis by 1 µM RelA^N-terminal with 4 µM NirD: percent of GTP converted to pppGpp within 60 min (80% without NirD) [2] [%]	Kd [3] [nM]	dH [3] [kcal/mol]	Molecule
550	–	–	–	RelA^N-terminal (purified RelA catalytic domains) (domain or fragment)
–	30	340	-3.63	NirD (purified, untagged) (natural protein, biotinylated with EZ-Link NHS-PEG4-Biotin for the biolayer interferometry only) MSQWKDICKIDDILPETGVCALLGDEQVAIFRPYHSDQVFAISNIDPFFESSVLSRGLIAEHQGELWVASPLKKQRFRLSDGLCMEDEQFSVKHYEARVKDGVVQLRG
